Experimental data from paper PMC7581431.
Values belong to the substance of their own block, whether it stands above or below them.

Tests used:
[1] = target: Lip-NKD-HisC (human (identical sequence in mouse and human)) (UniProt Q969G9); assay: aggregation and co-aggregation assay read by PAGE; purified proteins in 15 mM acetate, 150 mM NaCl, pH 5.0 mixed in different ratios; after 10 min 1 M Tris-HCl pH 8.0 added to 200 mM; after 20 min boiled 10 min in LDS sample buffer; PAGE under denaturing and reducing conditions
Sequence of Lip-NKD-HisC (human (identical sequence in mouse and human)) (Q969G9 whole entry): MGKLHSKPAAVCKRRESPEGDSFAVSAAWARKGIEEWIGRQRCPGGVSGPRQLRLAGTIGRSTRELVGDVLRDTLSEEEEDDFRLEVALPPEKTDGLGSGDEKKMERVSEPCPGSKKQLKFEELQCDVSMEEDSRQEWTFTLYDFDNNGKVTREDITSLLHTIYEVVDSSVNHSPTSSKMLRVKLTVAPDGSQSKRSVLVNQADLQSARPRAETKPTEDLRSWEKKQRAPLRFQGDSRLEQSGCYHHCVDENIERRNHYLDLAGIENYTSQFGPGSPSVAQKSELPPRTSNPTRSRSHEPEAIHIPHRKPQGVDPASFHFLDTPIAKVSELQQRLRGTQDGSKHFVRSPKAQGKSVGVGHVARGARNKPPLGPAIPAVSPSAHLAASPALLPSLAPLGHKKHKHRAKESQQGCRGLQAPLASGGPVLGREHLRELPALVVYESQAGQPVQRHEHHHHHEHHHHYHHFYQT

CK1ε = assay: BioID proximity labeling (mass spectrometry); conditions: +Wnt3a
[2] = target: CELSR1 [human (endogenous in Flp-In-T-REx-293)]; assay: BioID proximity labeling (mass spectrometry); conditions: +Wnt3a
[3] = target: Notch2 [human (endogenous in Flp-In-T-REx-293)]; assay: BioID proximity labeling (mass spectrometry); conditions: +Wnt3a

Substance: Lip-NKD-HisC (from UniProt Q969G9 1-470) (domain or fragment)
stoichiometry N [1]: 10

Substance: Nkd1-BirA* mutant G2A [murine] / CELSR1 [human (endogenous in Flp-In-T-REx-293)] chain 1 G2A
response (unweighted spectral counts) [2]: 1

Substance: Nkd1-BirA* mutant G2A [murine] / Notch2 [human (endogenous in Flp-In-T-REx-293)] chain 1 G2A
response (unweighted spectral counts) [3]: 1

Continued, values first:

molecules per core (molecules per core) [1]: < 5
Substance: MBP-Axin1-HisC (from UniProt O15169 1-862) (domain or fragment)

response (unweighted spectral counts) (CK1ε): 8
Substance: Nkd1-BirA* (from UniProt Q99MH6) G2A
